Positions count from the first letter of the chain named.
T1: human GIP receptor (hGIPr) (Homo sapiens, UniProt P48546)
T1 construct: expressed in transfected cells
T1 sequence (P48546 22-466): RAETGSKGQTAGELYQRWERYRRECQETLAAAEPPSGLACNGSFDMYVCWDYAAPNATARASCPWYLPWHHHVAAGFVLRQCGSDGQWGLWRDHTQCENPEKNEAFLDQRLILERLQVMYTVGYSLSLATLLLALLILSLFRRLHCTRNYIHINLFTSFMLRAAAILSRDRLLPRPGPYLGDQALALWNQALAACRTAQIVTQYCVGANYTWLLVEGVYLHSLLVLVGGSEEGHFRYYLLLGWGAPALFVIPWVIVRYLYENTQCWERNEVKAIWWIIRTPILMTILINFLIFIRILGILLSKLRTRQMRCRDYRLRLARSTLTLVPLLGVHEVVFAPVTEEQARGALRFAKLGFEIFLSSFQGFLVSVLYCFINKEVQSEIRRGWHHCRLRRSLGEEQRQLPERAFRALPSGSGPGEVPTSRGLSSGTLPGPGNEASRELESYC

T2: mouse GIP receptor (mGIPr) (Mus musculus, UniProt Q0P543)
T2 construct: expressed in transfected cells; host or cells: HEK293s or CHO cells
T2 sequence (Q0P543 19-460): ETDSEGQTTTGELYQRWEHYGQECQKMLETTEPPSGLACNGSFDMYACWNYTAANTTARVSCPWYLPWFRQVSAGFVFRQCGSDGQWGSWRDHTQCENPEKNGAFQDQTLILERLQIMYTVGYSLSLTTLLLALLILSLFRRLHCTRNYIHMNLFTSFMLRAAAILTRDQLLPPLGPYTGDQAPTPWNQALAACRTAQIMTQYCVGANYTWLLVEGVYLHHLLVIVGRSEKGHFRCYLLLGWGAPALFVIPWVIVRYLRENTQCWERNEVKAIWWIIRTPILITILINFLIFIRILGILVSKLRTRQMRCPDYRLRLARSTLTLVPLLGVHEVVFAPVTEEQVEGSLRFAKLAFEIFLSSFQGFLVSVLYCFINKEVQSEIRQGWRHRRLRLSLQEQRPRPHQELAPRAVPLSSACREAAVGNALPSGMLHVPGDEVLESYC

T3: rat GLP-1 receptor (rGLP-1r) (Rattus norvegicus, UniProt P32301)
T3 construct: expressed in transfected cells; host or cells: HEK293s or CHO cells
T3 sequence (P32301 22-463): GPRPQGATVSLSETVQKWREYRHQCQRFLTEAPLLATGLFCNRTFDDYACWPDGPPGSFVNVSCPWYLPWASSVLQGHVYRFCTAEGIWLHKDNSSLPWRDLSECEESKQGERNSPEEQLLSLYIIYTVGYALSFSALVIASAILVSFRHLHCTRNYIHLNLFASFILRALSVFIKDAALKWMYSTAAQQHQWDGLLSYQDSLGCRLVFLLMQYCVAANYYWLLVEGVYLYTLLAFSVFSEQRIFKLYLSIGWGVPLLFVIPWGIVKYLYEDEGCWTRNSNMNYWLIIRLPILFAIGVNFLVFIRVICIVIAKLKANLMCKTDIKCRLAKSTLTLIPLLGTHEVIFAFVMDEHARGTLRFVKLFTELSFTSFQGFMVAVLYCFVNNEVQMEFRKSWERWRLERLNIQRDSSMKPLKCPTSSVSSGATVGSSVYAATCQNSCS

T4: rat GIP receptor (rGIPr) (Rattus norvegicus, UniProt P43219)
T4 construct: expressed in transfected cells; host or cells: HEK293s or CHO cells
T4 sequence (P43219 19-455): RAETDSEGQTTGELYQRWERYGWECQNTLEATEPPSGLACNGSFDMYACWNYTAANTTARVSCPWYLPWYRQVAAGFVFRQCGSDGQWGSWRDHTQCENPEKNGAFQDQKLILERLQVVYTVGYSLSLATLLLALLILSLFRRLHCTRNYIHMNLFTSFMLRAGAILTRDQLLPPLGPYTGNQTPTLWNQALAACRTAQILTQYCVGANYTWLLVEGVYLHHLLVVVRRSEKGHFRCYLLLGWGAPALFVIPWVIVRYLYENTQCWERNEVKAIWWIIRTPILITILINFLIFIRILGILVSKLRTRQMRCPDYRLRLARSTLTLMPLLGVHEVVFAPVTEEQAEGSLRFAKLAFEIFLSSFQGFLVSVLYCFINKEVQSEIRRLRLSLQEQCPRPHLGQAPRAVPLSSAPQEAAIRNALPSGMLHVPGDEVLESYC

T5: mouse GLP-1 receptor (mGLP-1r) (Mus musculus, UniProt O35659)
T5 construct: expressed in transfected cells; host or cells: HEK293s or CHO cells
T5 sequence (O35659 22-463): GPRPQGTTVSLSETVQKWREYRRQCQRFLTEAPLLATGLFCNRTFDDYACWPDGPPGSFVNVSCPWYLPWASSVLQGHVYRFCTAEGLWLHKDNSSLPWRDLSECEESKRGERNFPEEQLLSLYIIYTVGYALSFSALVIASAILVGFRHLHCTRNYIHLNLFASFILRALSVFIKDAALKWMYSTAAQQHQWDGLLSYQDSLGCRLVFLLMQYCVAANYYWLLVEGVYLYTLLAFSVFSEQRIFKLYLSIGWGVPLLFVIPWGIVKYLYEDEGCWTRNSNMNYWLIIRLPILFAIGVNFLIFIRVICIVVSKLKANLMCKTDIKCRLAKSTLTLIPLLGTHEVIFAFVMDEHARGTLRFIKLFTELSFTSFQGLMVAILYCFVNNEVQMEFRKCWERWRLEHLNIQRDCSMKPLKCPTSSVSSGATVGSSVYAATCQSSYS

B1: IP364 (protein)
chain: YSEGTFTSDFSKLLERQAIDEFIAWLLKGGAAAGGSGSTASSGSGSATGGGGAATHTCPPC
B2: IP365 (protein)
chain: B1 chain with T5M, F6H
B3: IP366 (protein)
chain: B1 chain with F10Y, S11R, K12M, L14K
B4: IP373 (protein)
chain: B1 chain with F6H
B5: IP375 (protein)
chain: B1 chain with F6H, D9L
B6: IP378 (protein)
chain: B1 chain with D9L, F10Y, S11R, K12I
B7: IP394 (protein)
chain: B1 chain with T5M, F6H, F10L

Assays:
Type in all cases: cell-based
[1] = target: T1, human GIP receptor (hGIPr); experiment: BSA-cAMP assay, cells expressing human GIP receptor; conditions: Batch 1; BSA-cAMP assay; read-out: hGIPr cAMP activity EC50
Description: For human GIPr, two different lines were used, shown as “hGIPr” and “hGIPr (C3)” in Table 11.
(§1) One basic cAMP assays was performed, differing in the medium used for the assay, the “BSA-cAMP assay”:
(§2) BSA-based assay medium: 0.1% bovine serum albumin (BSA) in
(§3) In certain aspects, the assay can also be carried out in medium supplemented with serum albumin that corresponds to the receptor being tested, e.g., human serum albumin for testing cAMP activity at hGIPr or hGLP-1r, rat serum albumin for testing cAMP activity at rGIPr or rGLP-1r, and so on. […] All sample dilutions were made in duplicate.
(§4) A frozen cryo-vial of cells expressing the receptor of interest was thawed rapidly in a water-bath, transferred to pre-warmed assay media and spun at 240×g for 5 minutes. Cells were re-suspended in assay buffer at an optimized concentration (e.g., hGLP-1r and hGIPr cells at 0.5×10^5 cells/ml).
(§5) To this, 5 μL cell suspension was added and the plates incubated at room temperature for 30 minutes.
(§6) cAMP levels were measured using a commercially available cAMP dynamic 2 HTRF kit (Cisbio, Cat #62AM4PEJ), following the two step protocol as per manufacturer's recommendations. In brief; anti-cAMP cryptate (donor fluorophore) and cAMP-d2 (acceptor fluorophore) were made up separately by diluting each 1/20 in conjugate & lysis buffer provided in the kit. 5 μL anti-cAMP cryptate was added to all wells of the assay plate, and 5 μL cAMP-d2 added to all wells except non-specific binding (NSB) wells, to which conjugate and lysis buffer was added. […] Data was transformed to % Delta F as described in manufacturer's guidelines and then transformed to percent activation of maximal native agonist response and analysed by 4-parameter logistic fit to determine EC50 values.
(§7) We used unconstrained 4 parameter logistic fit of data, curve mid-point to determine EC50. This was tested on two occasions, not two batches.

[2] = target: T2, mouse GIP receptor (mGIPr); experiment: BSA-cAMP assay, cells expressing mouse GIP receptor; conditions: Batch 1; BSA-cAMP assay; read-out: mGIPr cAMP activity EC50
Description: as §1, §2, §3, §4, §5, §6, §7
(§8) In order to be able to carry out in vivo studies in rodents, IP088 was tested for potency against the mouse receptors mGIPr and mGLP-1r as well as the rat receptors rGIPr and rGLP-1r, using cells expressing the respective receptors in the cAMP assay described above.

[3] = target: T6, human glucagon receptor (GCGr) (Homo sapiens, UniProt P47871); experiment: BSA-cAMP assay, cells expressing human glucagon receptor; conditions: Batch 1, read-out: hGCGr cAMP activity EC50
T6 construct: expressed in transfected cells; host or cells: HEK293s or CHO cells
T6 sequence (P47871 26-477): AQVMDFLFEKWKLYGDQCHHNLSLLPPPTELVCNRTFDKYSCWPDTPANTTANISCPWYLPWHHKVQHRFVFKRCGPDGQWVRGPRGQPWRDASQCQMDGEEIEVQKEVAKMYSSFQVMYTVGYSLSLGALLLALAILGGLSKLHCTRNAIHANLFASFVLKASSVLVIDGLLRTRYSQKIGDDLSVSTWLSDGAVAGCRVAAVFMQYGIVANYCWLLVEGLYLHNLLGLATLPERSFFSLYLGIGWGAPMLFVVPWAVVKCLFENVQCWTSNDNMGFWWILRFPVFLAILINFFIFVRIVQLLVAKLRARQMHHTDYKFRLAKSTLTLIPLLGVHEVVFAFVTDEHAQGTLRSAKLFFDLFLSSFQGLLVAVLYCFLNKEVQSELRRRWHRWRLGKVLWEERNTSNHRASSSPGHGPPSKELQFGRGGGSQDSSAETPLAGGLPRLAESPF
Description: as §1, §2, §3, §4, §5, §6, §7

[4] = target: T7, human GLP-1 receptor (hGLP-1r) (Homo sapiens, UniProt P43220); experiment: BSA-cAMP assay, cells expressing human GLP-1 receptor; conditions: Batch 1; BSA-cAMP assay; read-out: hGLP1r cAMP activity EC50
T7 construct: expressed in transfected cells
T7 sequence (P43220 24-463): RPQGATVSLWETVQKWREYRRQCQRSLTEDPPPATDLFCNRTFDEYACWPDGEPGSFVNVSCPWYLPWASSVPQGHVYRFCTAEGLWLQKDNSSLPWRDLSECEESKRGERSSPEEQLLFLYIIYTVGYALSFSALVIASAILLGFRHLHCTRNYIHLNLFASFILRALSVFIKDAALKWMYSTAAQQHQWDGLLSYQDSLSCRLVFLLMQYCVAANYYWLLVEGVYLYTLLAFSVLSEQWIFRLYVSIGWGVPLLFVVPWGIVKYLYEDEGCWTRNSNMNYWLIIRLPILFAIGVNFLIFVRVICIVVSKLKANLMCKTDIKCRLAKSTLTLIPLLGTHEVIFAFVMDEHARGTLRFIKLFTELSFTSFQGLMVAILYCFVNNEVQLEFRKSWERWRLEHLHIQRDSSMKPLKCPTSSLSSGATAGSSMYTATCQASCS
Description: as §1, §2, §3, §4, §5, §6, §7

[5] = target: T3, rat GLP-1 receptor (rGLP-1r); experiment: BSA-cAMP assay, cells expressing rat GLP-1 receptor; conditions: Batch 1; BSA-cAMP assay; read-out: rGLP1r cAMP activity EC50
Description: as §1, §2, §3, §4, §5, §6, §7, §8

rat GIP receptor (rGIPr) = target: T4, rat GIP receptor (rGIPr); experiment: BSA-cAMP assay, cells expressing rat GIP receptor; conditions: Batch 1; BSA-cAMP assay; read-out: rGIPr cAMP activity EC50
Description: as §1, §2, §3, §4, §5, §6, §7, §8

[6] = target: T5, mouse GLP-1 receptor (mGLP-1r); experiment: BSA-cAMP assay, cells expressing mouse GLP-1 receptor; conditions: Batch 1; BSA-cAMP assay; read-out: mGLP1r cAMP activity EC50
Description: as §1, §2, §3, §4, §5, §6, §7, §8

Molecule	EC50 [1]	EC50 [2]	EC50 [3]	EC50 [4]	EC50 [5]	EC50 (rat GIP receptor (rGIPr))	EC50 [6]
B1	0.0085 nM	0.5 nM	610 nM	0.18 nM	0.058 nM	0.02 nM	0.69 nM
B2	0.02 nM	17 nM	> 10700 nM	0.87 nM	1.5 nM	0.12 nM	11 nM
B3	0.14 nM	0.056 nM	> 10200 nM	6.1 nM	14 nM	0.016 nM	100 nM
B4	0.0054 nM	3.2 nM	> 6790 nM	0.72 nM	0.9 nM	0.035 nM	9.2 nM
B5	0.078 nM	0.65 nM	> 11700 nM	4 nM	3.9 nM	0.07 nM	49 nM
B6	–	3.1 nM	> 2250 nM	17 nM	–	0.4 nM	100 nM
B7	0.0095 nM	10 nM	> 17600 nM	–	0.23 nM	0.06 nM	10 nM
